Data from patent publication WO2018007922A2 (dated 2018).

Target: recombinant human TTR F87M/L110M (human, UniProt P02766 21-147)
Assay: Biacore SPR, mAb captured on anti-human chip, TTR F87M/L110M as analyte

B1: Hu9D5 H4L1 (antibody, V domains shown)
VH: EVQLVESGGGLVQPGGSLRLSCAASGFTFSSYTMSWVRQAPGKGLEWVSEISNSGDTTYYPDTVKGRFTISRDNAKNSLYLQSNLLRAEDTAVYYCARHYYYGGGYGGWFFDVWGQGTTVTVSS
VL: DIVMTQSPLSLPVTPGEPASISCRSSKSLLHSNGNTYLYWFLQKPGQSPQLLIYRVSNLASGVPDRFSGSGSGTDFTLKISRVEAEDVGVYYCMQHLEYPLTFGQGTKLEIK
notes: not tied by words to the tested antibody; also called humanized 9D5 VHv4/VLv1
- Kd: 2.09 nM
